Like-named read-outs stand apart in the source and are kept apart here. Where a SMILES comes first, the peptide text is derived from it. [ ]: non-standard residue; d: D form.
How the values were obtained:
[1] = system: PTAFR; test: GPCR panel (control), Arrestin, CHO-K1; assay type: cell-based, human; conditions: reference agonist
[2] = system: P2RY2; test: GPCR panel (control), Arrestin, U2OS; assay type: cell-based, human; conditions: reference agonist
[3] = system: P2RY4; test: GPCR panel (control), Arrestin, CHO-K1; assay type: cell-based, human; conditions: reference agonist
[4] = system: P2RY6; test: GPCR panel (control), Arrestin, CHO-K1; assay type: cell-based, human; conditions: reference agonist
[5] = system: MTNR1A; test: GPCR panel (control), Arrestin, CHO-K1; assay type: cell-based, human; conditions: reference agonist
[6] = system: MTNR1B; test: GPCR panel (control), Arrestin, CHO-K1; assay type: cell-based, human; conditions: reference agonist
[7] = biological target: T1, MRGPRX2 (Homo sapiens, UniProt Q96LB1); test: calcium mobilization assay, CHEM-1 cells recombinantly expressing MRGPRX2; assay type: cell-based; parameters: host or cells: CHEM-1 adherent rat hematopoietic cells; conditions: for MRGPRX2 activation, Readout 1 / MRGPRX2 activation, Readout 2: Fig. 3b, fragment 1 µM, normalized to 1 µM CXCL14 (100%); for MRGPRX2 activation (in words): large CXCL14 fragments, CHEM1 cells overexpressing MRGPRX2; for EC50: Fluo-8, FLIPR, read-out: EC50, calcium mobilization assays; for pEC50: Fig. 3d
T1 sequence (Q96LB1 1-330): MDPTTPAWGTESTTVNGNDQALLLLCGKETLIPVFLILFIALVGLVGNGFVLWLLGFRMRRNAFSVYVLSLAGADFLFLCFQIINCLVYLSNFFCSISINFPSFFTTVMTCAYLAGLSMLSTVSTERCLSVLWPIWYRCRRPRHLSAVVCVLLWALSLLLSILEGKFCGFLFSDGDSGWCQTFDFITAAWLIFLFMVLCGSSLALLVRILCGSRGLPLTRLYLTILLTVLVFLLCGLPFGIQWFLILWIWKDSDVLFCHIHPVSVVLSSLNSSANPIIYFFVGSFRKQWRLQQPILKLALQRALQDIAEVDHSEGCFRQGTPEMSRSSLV
From the text: To confirm the initial results obtained in the β-arrestin recruitment assays, we established calcium mobilization assays in two different recombinant cell lines, CHEM-1 and LN229 cells, respectively. CHEM-1 cells are adherent rat hematopoietic cells with a high endogenous expression level of the promiscuous Gα15 protein enabling the measuring of calcium signaling of a large variety of GPCRs. […]. Subsequently, we employed recombinant human glioblastoma LN229 cells, a human cell line derived from glioblastoma multiforme tumors. […].
The cell lines CHEM1 and CHEM1-MRGPRX2 are adherent rat cell lines (HTSCHEM-1RTA, HTS058RTA, Merck-Millipore, Darmstadt, Germany); which were cultured under standard cell culture conditions.
A cell-based fluorometric assay was employed for the determination of intracellular calcium release using Fluo-8. Cells were seeded into microtiter plates and incubated under standard cell culture conditions. After 24 h the medium was removed, and the cells were washed with phosphate-buffered saline (PBS). The cells were incubated with loading buffer (40 ml PBS with 2 mM Ca^2+, 800 µl of brilliant black solution (2%), 732 µl of probenecid solution (0.5 M) in 1 N NaOH, 400 µL of pluronic (10%) in water, and 152 µl of Fluo-8 (5.7 ng/ml in water)) for 30 min. For fluorescence readout and compound testing a FLIPR tetra system was used according to the manufacture’s protocol (Molecular Devices, CA 94089- 1136, USA).

[8] = biological target: T2, OPRD1 (Homo sapiens, UniProt P41143); test: GPCR panel (control), Arrestin, CHO-K1; assay type: cell-based; conditions: reference agonist
T2 construct: expressed in transfected cells; host or cells: CHO-K1

[9] = biological target: T3, KISS1R (Homo sapiens, UniProt Q969F8); test: GPCR panel (control), Arrestin, U2OS; assay type: cell-based
T3 construct: expressed in transfected cells; host or cells: U2OS

[10] = system: P2RY11; test: GPCR panel (control), Arrestin, CHO-K1; assay type: cell-based, human; conditions: reference agonist
[11] = system: P2RY12; test: GPCR panel (control), Arrestin, CHO-K1; assay type: cell-based, human; conditions: reference agonist
[12] = biological target: MRGPRX2 fused to ProLink (PK), in CHO β-arrestin cells (human) (UniProt Q96LB1)
[13] = biological target: MRGPRX2 in the calcium mobilization assays of the small CXCL14 fragments and mutants (human) (UniProt Q96LB1)
[14] = biological target: MRGPRX2 in CHEM-1 cells (human) (UniProt Q96LB1)
[15] = system: PROKR1; test: GPCR panel (control), Arrestin, CHO-K1; assay type: cell-based, human; conditions: reference agonist
[16] = system: PROKR2; test: GPCR panel (control), Arrestin, CHO-K1; assay type: cell-based, human; conditions: reference agonist
[17] = biological target: MRGPRX2 in the calcium mobilization assays of the small CXCL14 fragments and mutants (human) (UniProt Q96LB1); remark: listed apart in the source
[18] = biological target: T4, mouse MRGPRB2 in 1321N1 astrocytoma cells (mouse) (UniProt Q3KNA1)
T4 sequence: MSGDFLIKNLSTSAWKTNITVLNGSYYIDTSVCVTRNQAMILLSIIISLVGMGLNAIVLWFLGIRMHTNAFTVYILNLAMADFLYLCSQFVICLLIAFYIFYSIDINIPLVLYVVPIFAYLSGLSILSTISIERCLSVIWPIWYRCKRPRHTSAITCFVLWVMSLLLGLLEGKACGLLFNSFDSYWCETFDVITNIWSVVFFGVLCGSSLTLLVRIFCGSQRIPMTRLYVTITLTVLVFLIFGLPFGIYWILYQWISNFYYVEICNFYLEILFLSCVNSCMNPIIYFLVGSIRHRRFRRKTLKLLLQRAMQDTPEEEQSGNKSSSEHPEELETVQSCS

[19] = CHEM-1 cells recombinantly expressing MRGPRX2

T2 sequence (P41143 whole entry): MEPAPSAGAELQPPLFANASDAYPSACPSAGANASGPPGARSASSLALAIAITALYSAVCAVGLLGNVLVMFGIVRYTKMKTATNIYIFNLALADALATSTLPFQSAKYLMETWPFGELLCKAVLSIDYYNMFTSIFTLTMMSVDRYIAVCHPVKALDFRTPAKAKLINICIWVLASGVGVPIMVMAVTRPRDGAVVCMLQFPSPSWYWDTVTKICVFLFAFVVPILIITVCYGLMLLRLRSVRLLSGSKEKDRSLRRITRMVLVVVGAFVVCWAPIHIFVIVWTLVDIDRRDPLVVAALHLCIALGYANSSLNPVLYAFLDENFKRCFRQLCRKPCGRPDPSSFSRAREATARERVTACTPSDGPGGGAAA
T3 sequence (Q969F8 whole entry): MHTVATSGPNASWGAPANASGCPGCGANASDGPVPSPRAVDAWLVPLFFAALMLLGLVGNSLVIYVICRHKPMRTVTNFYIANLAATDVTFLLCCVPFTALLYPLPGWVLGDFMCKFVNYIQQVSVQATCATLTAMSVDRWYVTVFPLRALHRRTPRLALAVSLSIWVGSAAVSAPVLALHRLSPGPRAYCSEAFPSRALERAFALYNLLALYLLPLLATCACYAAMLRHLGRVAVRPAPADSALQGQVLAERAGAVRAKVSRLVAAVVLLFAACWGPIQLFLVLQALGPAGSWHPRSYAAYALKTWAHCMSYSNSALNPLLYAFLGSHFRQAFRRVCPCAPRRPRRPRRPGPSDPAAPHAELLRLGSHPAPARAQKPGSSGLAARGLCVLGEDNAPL

CCCCCCCCCCCCCCCCOC[C@H](COP(=O)([O-])OCC[N+](C)(C)C)OC(C)=O [PAF]
EC50 [1]: 6.3 nM | EC80 [1]: 320 nM

O=c1ccn([C@@H]2O[C@H](COP(=O)(O)OP(=O)(O)OP(=O)(O)O)[C@@H](O)[C@H]2O)c(=O)[nH]1 [UTP]
EC50 [2]: 420 nM | EC80 [2]: 12 µM | EC50 [3]: 110 nM | EC80 [3]: 3.3 µM | EC50 [4]: 100 nM | EC80 [4]: 2.7 µM

COc1ccc2[nH]c(I)c(CCNC(C)=O)c2c1 [2-Iodomelatonin]
EC50 [5]: 0.085 nM | EC80 [5]: 5.1 nM | EC50 [6]: 0.084 nM | EC80 [6]: 4.2 nM

CXCL14(1-44): large CXCL14 fragment, inactive (SKCKCSRKGPKIRYSDVKKLEMKPKYPHCEEKMVIITTKSVSRY)
MRGPRX2 activation, Readout 1 [7]: 0.3% | MRGPRX2 activation, Readout 2 [7]: 0.6% | MRGPRX2 activation (in words) [7]: inactive

CSCC[C@H](NC(=O)[C@H](CC(C)C)NC(=O)[C@H](Cc1cnc[nH]1)NC(=O)[C@H](Cc1ccccc1)NC(=O)[C@@H](CCSC)NC(=O)[C@@H](N)Cc1ccc(O)cc1)C(=O)N[C@@H](CC(=O)O)C(N)=O [Deltorphin A] (H-Y[dM]FHLMD-NH2)
EC50 [8]: 2.3 nM | EC80 [8]: 54 nM

CC(C)C[C@H](NC(=O)CNC(=O)[C@H](Cc1ccccc1)NC(=O)[C@H](CO)NC(=O)[C@H](CC(N)=O)NC(=O)[C@H](Cc1c[nH]c2ccccc12)NC(=O)[C@H](CC(N)=O)NC(=O)[C@@H](N)Cc1ccc(O)cc1)C(=O)N[C@@H](CCCN=C(N)N)C(=O)N[C@@H](Cc1ccccc1)C(N)=O [Kisspeptin-10]
EC50 [9]: 63 nM | EC80 ([9]; reference agonist, KISS1R, U2OS, Arrestin): 1.1 µM

Nc1ncnc2c1ncn2[C@@H]1O[C@H](COP(=O)(O)OP(=O)(O)OP(=O)(O)O)[C@@H](O)[C@H]1O [ATP]
EC50 [10]: 350 µM | EC80 [10]: 0.013 M

CSc1nc(N)c2ncn([C@@H]3O[C@H](COP(=O)(O)OP(=O)(O)O)[C@@H](O)[C@H]3O)c2n1 [2-methylthio-ADP]
EC50 [11]: 2.6 nM | EC80 [11]: 58 nM

B1: CXCL14(1-56/64-77): largest inactive CXCL14 fragment, lacks STKRFIK (peptide)
chain: SKCKCSRKGPKIRYSDVKKLEMKPKYPHCEEKMVIITTKSVSRYRGQEHCLHPKLQWYNAWNEKRRVYEE
MRGPRX2 activation, Readout 1 [7]: 10% | MRGPRX2 activation, Readout 2 [7]: 8% | MRGPRX2 activation (in words) [7]: inactive

B2: CXCL14(57-63) (peptide)
peptide: STKRFIK
EC50, β-arrestin recruitment at MRGPRX2 [12]: 50.4 µM | Emax, β-arrestin recruitment at MRGPRX2, normalized to the maximal effect of CXCL14 [12]: 53% | EC50, calcium mobilization at MRGPRX2 [13]: > 10 µM

B3: CXCL14(1-32/56-77) (domain or fragment)
chain: SKCKCSRKGPKIRYSDVKKLEMKPKYPHCEEKQSTKRFIKWYNAWNEKRRVYEE
EC50, calcium mobilization, CHEM1 cells overexpressing MRGPRX2 [14]: 0.678 µM | Emax, calcium mobilization, CHEM1 cells overexpressing MRGPRX2, normalized to the maximal effect of CXCL14 [14]: 175%

B4: CXCL14(1-63): large CXCL14 fragment, inactive (peptide)
chain: SKCKCSRKGPKIRYSDVKKLEMKPKYPHCEEKMVIITTKSVSRYRGQEHCLHPKLQSTKRFIK
MRGPRX2 activation, Readout 1 [7]: 36% | MRGPRX2 activation, Readout 2 [7]: 38% | MRGPRX2 activation (in words) [7]: inactive

B5: EG VEGF (protein, UniProt P58294 20-105, looked up)
Prokineticin-1: AVITGACERDVQCGAGTCCAISLWLRGLRMCTPLGREGEECHPGSHKVPFFRKRKHHTCPCLPNLLCSRFPDGRYRCSMDLKNINF
EC50 [15]: 49 nM | EC80 [15]: 2.4 µM | EC50 [16]: 5.1 nM | EC80 [16]: 410 nM

B6: CXCL14(15-77) (domain or fragment)
chain: SDVKKLEMKPKYPHCEEKMVIITTKSVSRYRGQEHCLHPKLQSTKRFIKWYNAWNEKRRVYEE
EC50, calcium mobilization, CHEM1 cells overexpressing MRGPRX2 [14]: 0.751 µM | EC50 [7, 19]: 751 nM | pEC50 ([7]; replicate column 1): 6.175 | pEC50 ([7]; replicate column 2): 6.411

B7: CXCL14(39-77) (domain or fragment)
chain: KSVSRYRGQEHCLHPKLQSTKRFIKWYNAWNEKRRVYEE
EC50, calcium mobilization, CHEM1 cells overexpressing MRGPRX2 [14]: 0.68 µM | Emax, calcium mobilization, CHEM1 cells overexpressing MRGPRX2, normalized to the maximal effect of CXCL14 [14]: 164%

B8: CXCL14(60-65) (peptide)
peptide: RFIKWY
EC50, calcium mobilization at MRGPRX2 [17]: 2.15 µM | Emax, calcium mobilization at MRGPRX2 [17]: 130% | EC50, calcium mobilization, 1321N1 astrocytoma cells expressing MRGPRB2 [18]: 2.32 µM | Emax, calcium mobilization, 1321N1 astrocytoma cells expressing MRGPRB2 [18]: 117%

B9: CXCL14(59-65) (peptide)
peptide: KRFIKWY
EC50, calcium mobilization at MRGPRX2 [17]: 0.316 µM | Emax, calcium mobilization at MRGPRX2 [17]: 155% | EC50, calcium mobilization, 1321N1 astrocytoma cells expressing MRGPRB2 [18]: 1.26 µM | Emax, calcium mobilization, 1321N1 astrocytoma cells expressing MRGPRB2 [18]: 127%

B10: CXCL14(1-11/18-77) (domain or fragment)
chain: SKCKCSRKGPKKKLEMKPKYPHCEEKMVIITTKSVSRYRGQEHCLHPKLQSTKRFIKWYNAWNEKRRVYEE
EC50, calcium mobilization, CHEM1 cells overexpressing MRGPRX2 [14]: 0.379 µM | Emax, calcium mobilization, CHEM1 cells overexpressing MRGPRX2, normalized to the maximal effect of CXCL14 [14]: 205% | improvement of potency compared to CXCL14 [7, 19]: 3 fold | EC50 [7, 19]: 379 nM | Emax, calcium mobilization assays ([7]; CHEM-1 cells recombinantly expressing MRGPRX2, normalized to the maximal effect of CXCL14): 205% | MRGPRX2 activation, Readout 1 [7]: 203% | MRGPRX2 activation, Readout 2 [7]: 208% | pEC50 ([7]; replicate column 1): 6.419 | pEC50 ([7]; replicate column 2): 6.454
